From publication PMC4549301 (2015)

B1: GST–HCF-1rep1, wild type (HCF-1 residues 867–1071) [human] / Recombinant human O-linked β-N-acetylglucosamine transferase (OGT), wild type [human] (parent)
chain 1: PAVTTLVVKGTTGVTTLGTVTGTVSTSLAGAGGHSTSASLATPITTLGTIATLSSQVINPTAITVSAAQTTLTAAGGLTTPTITMQPVSQPTQVTLITAPSGVEAQPVHDLPVSILASPTTEQPTATVTIADSGQGDVQPGTVTLVCSNPPCETHETGTTNTATTTVVANLGGHPQPTQVQFVCDRQEAAASLVTSTVGQQNGSV
chain 2: MASSVGNVADSTGLAELAHREYQAGDFEAAERHCMQLWRQEPDNTGVLLLLSSIHFQCRRLDRSAHFSTLAIKQNPLLAEAYSNLGNVYKERGQLQEAIEHYRHALRLKPDFIDGYINLAAALVAAGDMEGAVQAYVSALQYNPDLYCVRSDLGNLLKALGRLEEAKACYLKAIETQPNFAVAWSNLGCVFNAQGEIWLAIHHFEKAVTLDPNFLDAYINLGNVLKEARIFDRAVAAYLRALSLSPNHAVVHGNLACVYYEQGLIDLAIDTYRRAIELQPHFPDAYCNLANALKEKGSVAEAEDCYNTALRLCPTHADSLNNLANIKREQGNIEEAVRLYRKALEVFPEFAAAHSNLASVLQQQGKLQEALMHYKEAIRISPTFADAYSNMGNTLKEMQDVQGALQCYTRAIQINPAFADAHSNLASIHKDSGNIPEAIASYRTALKLKPDFPDAYCNLAHCLQIVCDWTDYDERMKKLVSIVADQLEKNRLPSVHPHHSMLYPLSHGFRKAIAERHGNLCLDKINVLHKPPYEHPKDLKLSDGRLRVGYVSSDFGNHPTSHLMQSIPGMHNPDKFEVFCYALSPDDGTNFRVKVMAEANHFIDLSQIPCNGKAADRIHQDGIHILVNMNGYTKGARNELFALRPAPIQAMWLGYPGTSGALFMDYIITDQETSPAEVAEQYSEKLAYMPHTFFIGDHANMFPHLKKKAVIDFKSNGHIYDNRIVLNGIDLKAFLDSLPDVKIVKMKCPDGGDNADSSNTALNMPVIPMNTIAEAVIEMINRGQIQITINGFSISNGLATTQINNKAATGEEVPRTIIVTTRSQYGLPEDAIVYCNFNQLYKIDPSTLQMWANILKRVPNSVLWLLRFPAVGEPNIQQYAQNMGLPQNRIIFSPVAPKEEHVRRGQLADVCLDTPLCNGHTTGMDVLWAGTPMVTMPGETLASRVAASQLTCLGCLELIAKNRQEYEDIAVKLGTDLEYLKKVRGKVWKQRISSPLFNTKQYTMELERLYLQMWEHYAAGNKPDHMIKPVEVTESA

Variants of: B1
Assay: in vitro HCF-1rep1-OGT binding assay (OGT pull-down, quantified immunoblot)
Conditions: with Recombinant human O-linked β-N-acetylglucosamine transferase (OGT), in the presence of UDP-GlcNAc, read off a plot

Row | Variant | screen value (log2 fold change)
1 | chain 1 PAVTTLVVKGTTGVTTLGTVTGTVSTSLAGAGGHSTSASLATPITTLGTIATLSSQVINPTAITVSAAQTTLTAAGGLTTPTITMQPVSQPTQVTLITAPSGVEAQPVHDLPVSILASPTTEQPTATVTIADSGQGDVQPGTVTLVCSNPPCATHETGTTNTATTTVVANLGGHPQPTQVQFVCDRQEAAASLVTSTVGQQNGSV [chain 1 E153A] | 0.8
